Series [1] concerns the target T1, SydR' (WT, CC) (Sinorhizobium meliloti Rm2011) (UniProt Q92XY2).
T1 sequence: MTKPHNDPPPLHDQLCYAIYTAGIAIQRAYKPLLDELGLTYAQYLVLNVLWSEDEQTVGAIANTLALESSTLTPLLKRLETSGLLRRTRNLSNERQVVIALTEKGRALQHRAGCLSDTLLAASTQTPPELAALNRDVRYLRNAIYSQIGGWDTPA
Put plainly: EMSA. The note with it: 10 mM Tris-HCl pH 8, 50 mM KCl, 0.5 mM EDTA, 10% glycerol, 0.5 mM DTT, 10 nM DNA, 25°C 25 min; 8% PAGE in 0.5x TBE. In general terms: Mobility shift assays separate free from complexed probe on a gel.

Series [2] deals with SydRC114S (CS) (Sinorhizobium meliloti). The series can be described thus: cross-linking; intersubunit disulfide bond assay: proteins reduced in 100 mM DTT for 2 h, desalted, oxidised with 100 mM NaOCl for 30 min, 100 mM N-ethylmaleimide for 2 h at room temperature, 10% non-reducing SDS-PAGE; shows covalent (disulfide) dimers only.
In series [3] the target is His-tagged recombinant SydR (SydR′), wild type (Sinorhizobium meliloti). The series is described as above.
Series [4] has as its target SydRC16S (SC) (Sinorhizobium meliloti). Described as above.

5 substances from PMC11633110 can be followed below.

In general, stoichiometry N refers to the number of molecules, sites or subunits per partner or assembly.

Regarding “TCTGGGCTCCTTTGCGCACCAATATAATCAAGATTACCGCGAAAACCAATATCGCGATAAGAGATATGTTGACGAGCAGTTCAATATCTGACAACTTAAATATATCGCGATAACAGTTATCGCTATCAACGAAAGGAAAAAGCC (double strand) [sydR-SMa2023 intergenic region, 144 bp]”, the binding result in series [1] is on record as “binds”.

Turning to SydRC114S (CS) (natural protein), in series [2], the stoichiometry N is 2.

With “His-tagged recombinant SydR (SydR′), wild type (natural protein)”, the stoichiometry N in series [3] was 2.

Regarding SydRC16S (SC) (natural protein), the stoichiometry N in series [4] was found to be 2.

On to “CCGCCTTCCAGATCAGTACCGGCTTGCTTAGCCAAGCGCTCGGCCAAACGGACTGAGGCCTCCGTTGCGATCCACCCAGGCGACACCCGCACGACCCGGATACCTTTGGACGAAATTTCCTTCGCTATCGACTTGCCG (double strand) [SMa2019 internal fragment, 138 bp]”, for which the binding entry in series [1] is “no binding”.
